Results from patent publication US20170022281A1 (AbbVie / Abbott, published 2017).
Substitutions are numbered along the chain they refer to.

B1: Ab39 (antibody, human IgG1, kappa, V domains shown)
VH: EVQLVQSGAEVKKPGSSVKVSCKASGYTFTSYWIHWVRQAPGQGLEWIGEIDPSDSYTNYNQKFKGRATLTVDKSSSTAYMELSSLRSEDTAVYYCARSFFTNWFAYWGQGTLVTVSS
VL: DVVMTQTPLSLSVTPGQPASISCRSSQSLVHSNGNTYLHWYLQKPGQSPQLLIYKVSNRFSGVPDRFSGSGSGTDFTLKISRVEAEDVGVYFCSQSTHVPFTFGGGTKVEIKR
notes: humanized from Ab7; G1; also called Ab4 HC.1a and Ab4 LC.1a
B2: Ab40 (antibody, human IgG1, kappa)
heavy: not shown
light: DVVMTQTPLSLSVTPGQPASISCRSSQSLVHSNGNTYLHWYLQKPGQSPQLLIYKVSNRFSGVPDRFSGSGSGTDFTLKISRVEAEDVGVYYCSQSTHVPFTFGGGTKVEIKRTVAAPSVFIFPPSDEQLKSGTASVVCLLNNFYPREAKVQWKVDNALQSGNSQESVTEQDSKDSTYSLSSTLTLSKADYEKHKVYACEVTHQGLSSPVTKSFNRGEC
notes: humanized from Ab7; G1; also called Ab4 HC.1a and Ab4 LC.1b
B3: Ab30 (antibody, human IgG1, kappa, V domains shown)
VH: B1 VH with Y32F, I34M, E50V, S56T, K74E, S99G, F100D, F101Y, T102S, A106T
VL: B1 VL with S28R, F101W
notes: humanized from Ab5; G1; also called Ab2 HC.1a and Ab2 LC.1a
B4: Ab48 (antibody, human IgG1, kappa, V domains shown)
VH: EVQLVQSGAEVKKPGASVKVSCKASGYTFTDYNIHWVRQAPGQGLEWIGYIYPNNDGTGYNQKFKSRATLTVDNSTSTAYMELRSLRSDDTAVYYCARGDGNYVGDMDYWGQGTTVTVSS
VL: DIQMTQSPSSLSASVGDRVTITCRASENIYSYLAWYQQKPGKPPKLLVYNAKTLAEGVPSRFSGSGSGTDFTLTISSLQPEDFATYYCQHHYATPFTFGQGTKLEIKR
notes: humanized from Ab8; G1; also called Ab3 HC.1a and Ab3 LC.1a

Target: T1, cyno PRLR (Biacore antigen) (cyno, UniProt A0A2K5WXK1 25-234)
T1 construct: also called cyPRLR
T1 sequence: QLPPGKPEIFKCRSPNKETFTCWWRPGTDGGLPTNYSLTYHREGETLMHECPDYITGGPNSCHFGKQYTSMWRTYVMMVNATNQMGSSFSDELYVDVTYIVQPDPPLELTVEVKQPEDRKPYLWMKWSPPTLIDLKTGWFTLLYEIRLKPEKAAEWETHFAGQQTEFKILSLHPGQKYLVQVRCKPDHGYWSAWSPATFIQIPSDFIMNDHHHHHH
Assay: SPR Biacore
Method in brief: (§1)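 Association rate, dissociation rate and dissociation constant were measured by surface plasmon resonance on a Biacore instrument. PRLR antigen was tested at 600 nM, 66.67 nM and 7.41 nM, a 3-point, 9-fold dilution series. Constants came from a 1:1 binding model fit (local Rmax, mass-transport term included) in Biacore T200 Evaluation Software.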

Binder | Kd [nM] | koff [s⁻¹] | kon [M⁻¹ s⁻¹]
B1 | 4.01 | 0.000613 | 153000
B2 | 5.38 | 0.000719 | 134000
B3 | 1.59 | 0.000523 | 330000
B4 | 9.77 | 0.00563 | 576000

Target: T2, murine PRLR (Biacore antigen) (murine, UniProt Q08501 20-229, limits assumed)
T2 construct: also called muPRLR
T2 sequence (looked up): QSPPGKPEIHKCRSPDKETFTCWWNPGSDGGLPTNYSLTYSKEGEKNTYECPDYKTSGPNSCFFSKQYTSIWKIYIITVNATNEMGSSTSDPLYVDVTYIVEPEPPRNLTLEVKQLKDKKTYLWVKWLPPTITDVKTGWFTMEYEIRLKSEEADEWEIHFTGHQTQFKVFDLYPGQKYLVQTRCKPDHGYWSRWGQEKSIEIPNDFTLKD
Assay: SPR Biacore
Method in brief: as §1

Binder | Kd [nM] | koff [s⁻¹] | kon [M⁻¹ s⁻¹]
B1 | 742 | 0.0427 | 57600
B2 | 1190 | 0.0534 | 45000
B3 | 40 | 0.0056 | 140000
B4 | 453 | 0.0983 | 217000

Target: T3, human PRLR (Biacore antigen) (human, UniProt P16471 25-234, limits assumed)
T3 construct: The construct injected over captured antibody is not described (a soluble form is likely); also called huPRLR
T3 sequence: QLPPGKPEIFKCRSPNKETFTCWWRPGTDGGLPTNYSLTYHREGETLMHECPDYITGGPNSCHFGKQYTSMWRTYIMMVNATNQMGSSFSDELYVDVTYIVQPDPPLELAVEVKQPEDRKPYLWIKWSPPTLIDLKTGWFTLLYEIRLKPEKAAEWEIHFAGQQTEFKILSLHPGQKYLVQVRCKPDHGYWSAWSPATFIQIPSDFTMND
Assay: SPR Biacore
Method in brief: as §1

Binder | Kd [nM] | koff [s⁻¹] | kon [M⁻¹ s⁻¹]
B1 | 4.25 | 0.000715 | 168000
B2 | 5.38 | 0.000823 | 153000
B3 | 1.29 | 0.000437 | 339000
B4 | 0.18 | 9.84e-05 | 546000

Target: T3, human PRLR (Biacore antigen)
Assay: SPR simultaneous binding; PRLR held by surface mAb Ab19
Description: (§2) Running buffer was HBS-EP+ (10 mM Hepes, pH7.4, 150 mM NaCl, 3 mM EDTA, 0.05% surfactant). Assay was performed at 12° C. using Biacore T200 and CM5 sensor chips with anti-human IgG (Pierce) amine-coupled in all 4 flow cells to ˜2000 RU.
(§3) Separate test mAbs were captured in flowcells 2, 3 & 4 (flowcell 1 was reference, no test mAb). All 4 flowcells were then blocked by injection with isotype control mAb at 50 ug/ml. All 4 flowcells were then injected with antigen or buffer only (buffer only is for double referencing, done for each mAb pair individually). All 4 flowcells were then injected with 2nd test mAb at 10 ug/ml. All 4 flowcells were then regenerated with glycine, pH1.5.

Binder | solution mAb binding, % of PRLR binding [%]
B1 | -1
B2 | -1
B3 | -1
B4 | -1

Target: T3, human PRLR (Biacore antigen)
Assay: SPR simultaneous binding; PRLR held by surface mAb Ab21
Description: as §2, §3

Binder | solution mAb binding, % of PRLR binding [%]
B1 | -1
B2 | -1
B3 | -1
B4 | -1

Target: T3, human PRLR (Biacore antigen)
Assay: SPR simultaneous binding; PRLR held by surface mAb Ab30
Description: as §2, §3

Binder | solution mAb binding, % of PRLR binding [%]
B1 | 0
B2 | -1
B3 | -1
B4 | -1

Target: T3, human PRLR (Biacore antigen)
Assay: SPR simultaneous binding; PRLR held by surface mAb Ab40
Description: as §2, §3

Binder | solution mAb binding, % of PRLR binding [%]
B1 | -2
B2 | -2
B3 | -2
B4 | -2

Target: T3, human PRLR (Biacore antigen)
Assay: SPR simultaneous binding; PRLR held by surface mAb Ab48
Description: as §2, §3

Binder | solution mAb binding, % of PRLR binding [%]
B1 | 2
B2 | 0
B3 | 6
B4 | -1

Target: T3, human PRLR (Biacore antigen)
Assay: SPR simultaneous binding; PRLR held by surface mAb Ab49
Description: as §2, §3

Binder | solution mAb binding, % of PRLR binding [%]
B1 | 2
B2 | 0
B3 | 6
B4 | -2

Target: T3, human PRLR (Biacore antigen)
Assay: SPR simultaneous binding; PRLR held by surface mAb chAb5
Description: as §2, §3

Binder | solution mAb binding, % of PRLR binding [%]
B1 | 0
B2 | 0
B3 | 0
B4 | 0

Target: T3, human PRLR (Biacore antigen)
Assay: SPR simultaneous binding; PRLR held by surface mAb chAb6
Description: as §2, §3

Binder | solution mAb binding, % of PRLR binding [%]
B1 | 0
B2 | -1
B3 | -1
B4 | -2

Target: T3, human PRLR (Biacore antigen)
Assay: SPR simultaneous binding; PRLR held by surface mAb chAb7
Description: as §2, §3

Binder | solution mAb binding, % of PRLR binding [%]
B1 | 1
B2 | 1
B3 | 0
B4 | 0
